This is an account of results in the supplement of paper PMC7877785.

The data set in a line: self-splicing fitness, log relative to wild type (ln ratio); higher = more splicing; Tetrahymena group I intron in knt gene, E. coli kanamycin selection, DiMSum; sequences stand for … in CUCUCU…GGAGGGAAAAGUUAUCAGGCAUGCACCUGGUAGCUAGUCUUUAAACCAAUAGAUUGCAUCGGUUUAAAAGGCAAGACCGUCAAAUUGCGGGAAAGGGGUCAACAGCCGUUCAGUACCAAGUCUCAGGGGAAACUUUGAGAUGGCCUUGCAAAGGGUAUGGUAAUAAGCUGACGGACAUGGUCCUAACCACGCAGCCAAGUCCUAAGUCAACAGAUCUUCUGUUGAUAUGGAUGCAGUUCACAGACUAAAUGUCGGUCGGGGAAGAUGUAUUCUUCUCAUAAGAUAUAGUCGGACCUCUCCUUAAUGGGAGCUAGCGGAUGAAGUGAUGCAACACUGGAGCCGCUGGGAACUAAUUUGUAUGCGAAAGUAUAUUGAUUAGUUUUGGAGUACUCGUGGUCG
Put shortly: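 DiMSum derived fitness as the error-weighted combination of fold changes across replicates, kanamycin versus no kanamycin, normalised to wild type. E. coli BL21(DE3) held the library, which randomised all eight P1ex-region intron nucleotides within the knt kanamycin-resistance gene on pET-22b(+). Six replicate transformations grew overnight at 37°C or 30°C on LB agar with or without 25 μg/mL kanamycin, also containing 100 μg/mL carbenicillin, 50 μM IPTG and 0.2% rhamnose, and pooled colonies were amplicon-sequenced on an Illumina HiSeq 2500.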

± gives the uncertainty stated by the source.

With CAAUAGCAAUAUUACGAGGA, the “self-splicing fitness (ln)” value by setting is: (30 °C) -2.82 ± 0.26; (37 °C) -2.07 ± 0.27.
For CAAUAGCAAUAUUACGAUAC, the “self-splicing fitness (ln)” value (30 °C) is -3.17 ± 0.19 and the “self-splicing fitness (ln)” value (37 °C) was -2.41 ± 0.16.
For the sequence CAAUAGCAAUAUUACGAUCG, the “self-splicing fitness (ln)” value runs as follows: (30 °C) 0.123 ± 0.069; (37 °C) -0.0654 ± 0.083.
Taken in the same sequence, the figures for CAAUAGCAAUAUUACGAUUC were -3.4 ± 0.14 and -1.24 ± 0.14.
In the case of CAAUAGCAAUAUUACGCAUC, for the setting “37 °C”, the “self-splicing fitness (ln)” value is -2.7 ± 0.35.
CAAUAGCAAUAUUACGCCGC: the “self-splicing fitness (ln)” value by setting is: (30 °C) -2.12 ± 0.22; (37 °C) -2.72 ± 0.4.
For CAAUAGCAAUAUUACGCCGU, the “self-splicing fitness (ln)” value (30 °C) is -3.47 ± 0.15 and the “self-splicing fitness (ln)” value (37 °C) was -1.4 ± 0.14.
For CAAUAGCAAUAUUACGCCUA, the “self-splicing fitness (ln)” value by setting is: (30 °C) -2.01 ± 0.22; (37 °C) -1.74 ± 0.18.
For CAAUAGCAAUAUUACGCCUC, the “self-splicing fitness (ln)” value is, setting by setting: (30 °C) -3.74 ± 0.48; (37 °C) -2.17 ± 0.36.
The corresponding values for CAAUAGCAAUAUUACGCGAA are -3.11 ± 0.21 and -1.67 ± 0.15.
Taken in the same sequence, the figures for CAAUAGCAAUAUUACGCUGC were -3.49 ± 0.28 and -1.92 ± 0.33.
As to CAAUAGCAAUAUUACGCUGU, the “self-splicing fitness (ln)” value was -3.13 ± 0.17 (30 °C) and -2.07 ± 0.15 (37 °C).
Turning to CAAUAGCAAUAUUACGCUUG, the “self-splicing fitness (ln)” value (30 °C) was -2.63 ± 0.14 and the “self-splicing fitness (ln)” value (37 °C) is -2.01 ± 0.16.
Turning to CAAUAGCAAUAUUACGGAAU, the “self-splicing fitness (ln)” value runs as follows: (30 °C) -3.67 ± 0.35; (37 °C) -3.11 ± 0.33.
Taken in the same sequence, the figures for CAAUAGCAAUAUUACGGGUG were -0.693 ± 0.068 and 0.0252 ± 0.091.
With CAAUAGCAAUAUUACGGUCA, the “self-splicing fitness (ln)” value by setting is: (30 °C) -3.09 ± 0.18; (37 °C) -1.55 ± 0.12.
For CAAUAGCAAUAUUACGUAAG, the “self-splicing fitness (ln)” value reads like this: (30 °C) 0.0257 ± 0.049; (37 °C) 0.121 ± 0.062.
With CAAUAGCAAUAUUACGUCCG, the “self-splicing fitness (ln)” value (30 °C) was -0.215 ± 0.1 and the “self-splicing fitness (ln)” value (37 °C) was -0.267 ± 0.13.
As for CAAUAGCAAUAUUACGUUGA, the “self-splicing fitness (ln)” value is -2.59 ± 0.15 (30 °C) and -3.59 ± 0.22 (37 °C).
Taken in the same sequence, the figures for CAAUAGCAAUAUUACGUUGC were -4.82 ± 0.42 and -3.05 ± 0.26.
For the sequence CACAAGCAAUAUUACGAAAA, the “self-splicing fitness (ln)” value by setting is: (30 °C) -3.15 ± 0.17; (37 °C) -2.57 ± 0.24.
On to CACAAGCAAUAUUACGACAG, for which the “self-splicing fitness (ln)” value by setting is: (30 °C) 0.0654 ± 0.065; (37 °C) 0.61 ± 0.083.
The corresponding values for CACAAGCAAUAUUACGAGAU are -3.28 ± 0.1 and -2.74 ± 0.12.
The corresponding values for CACAAGCAAUAUUACGAGCC are -4.37 ± 0.42 and -2.17 ± 0.4.
Take CACAAGCAAUAUUACGAGUC: the “self-splicing fitness (ln)” value runs as follows: (30 °C) -3.71 ± 0.17; (37 °C) -2.26 ± 0.16.
Take CACAAGCAAUAUUACGAUGU: the “self-splicing fitness (ln)” value (30 °C) is -3.96 ± 0.16 and the “self-splicing fitness (ln)” value (37 °C) was -1.99 ± 0.1.
Turning to CACAAGCAAUAUUACGAUUA, the “self-splicing fitness (ln)” value (30 °C) is -2.43 ± 0.13 and the “self-splicing fitness (ln)” value (37 °C) is -0.984 ± 0.12.
CACAAGCAAUAUUACGCAGA: the “self-splicing fitness (ln)” value (30 °C) was -2.72 ± 0.2 and the “self-splicing fitness (ln)” value (37 °C) is -1.43 ± 0.16.
Taken in the same sequence, the figures for CACAAGCAAUAUUACGCAUA were -3.87 ± 0.19 and -1.12 ± 0.11.
Take CACAAGCAAUAUUACGCCAU: the “self-splicing fitness (ln)” value is, setting by setting: (30 °C) -4 ± 0.23; (37 °C) -3.48 ± 0.25.
As for CACAAGCAAUAUUACGCCGA, the “self-splicing fitness (ln)” value is -3.39 ± 0.26 (30 °C) and -0.917 ± 0.15 (37 °C).
With CACAAGCAAUAUUACGCGCU, the “self-splicing fitness (ln)” value was -4.44 ± 0.27 (30 °C) and -2.33 ± 0.18 (37 °C).
As for CACAAGCAAUAUUACGCUCG, the “self-splicing fitness (ln)” value runs as follows: (30 °C) -0.562 ± 0.089; (37 °C) -0.27 ± 0.092.
Taken in the same sequence, the figures for CACAAGCAAUAUUACGCUUU were -4.46 ± 0.24 and -2.81 ± 0.17.
For the sequence CACAAGCAAUAUUACGGAAA, the “self-splicing fitness (ln)” value runs as follows: (30 °C) -3.04 ± 0.19; (37 °C) -2.99 ± 0.2.
Turning to CACAAGCAAUAUUACGGAGG, the “self-splicing fitness (ln)” value reads like this: (30 °C) -2.14 ± 0.089; (37 °C) -0.826 ± 0.1.
With CACAAGCAAUAUUACGGCUC, the “self-splicing fitness (ln)” value (30 °C) was -2.56 ± 0.18 and the “self-splicing fitness (ln)” value (37 °C) is -1.75 ± 0.16.
